Test results: paper PMC6914340

How the values were obtained:
Experiment in all cases: flow cytometry on cells; on-yeast binding titration: single yeast colonies each displaying an IL-6 variant; biotinylated gp130 from 1 μM, eight concentrations in a 1/3 dilution series; apparent KD
[1] = biological target: IL-6 variant Mut7 displayed on yeast (human) (UniProt P05231)
[2] = biological target: IL-6 variant Mut3 displayed on yeast (human) (UniProt P05231)
[3] = biological target: IL-6 variant Mut1 displayed on yeast (human) (UniProt P05231)

Measured: Kd

biotinylated gp130 ectodomain (SD1-SD3, amino acids 23–321), sequence (P40189 23-321): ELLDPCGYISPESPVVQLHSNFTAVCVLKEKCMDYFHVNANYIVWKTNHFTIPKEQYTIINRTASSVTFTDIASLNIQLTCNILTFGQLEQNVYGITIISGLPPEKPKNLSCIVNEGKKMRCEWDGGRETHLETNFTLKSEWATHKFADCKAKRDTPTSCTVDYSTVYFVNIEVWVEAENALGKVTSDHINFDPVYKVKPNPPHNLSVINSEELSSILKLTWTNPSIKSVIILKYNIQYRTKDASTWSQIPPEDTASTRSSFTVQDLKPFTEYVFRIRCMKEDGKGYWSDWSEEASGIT
IL-6 variant Mut3 displayed on yeast (human), sequence (P05231 30-212, change not shown): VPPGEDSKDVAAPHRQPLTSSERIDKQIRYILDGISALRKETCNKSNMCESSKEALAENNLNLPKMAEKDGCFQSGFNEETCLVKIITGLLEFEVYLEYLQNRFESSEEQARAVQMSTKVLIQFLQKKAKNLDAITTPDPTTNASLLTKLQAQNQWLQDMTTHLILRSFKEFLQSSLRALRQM
IL-6 variant Mut7 displayed on yeast (human), sequence (P05231 30-212, change not shown): as above
IL-6 variant Mut1 displayed on yeast (human), sequence (P05231 30-212, change not shown): as above

biotinylated gp130 ectodomain (SD1-SD3, amino acids 23–321) (from UniProt P40189 23-321) (domain or fragment)
2 nM: all assays above
